The values below come from article PMC2865556 (Integrative biology : quantitative biosciences from nano to …, 2009).

This experiment deals with full-length t-SNARE heterodimer (syntaxin 1A and SNAP-25) (UniProt P32851 1-288; P60879 1-206). The experiment can be described thus: AFM single-molecule force spectroscopy.
Sequence of full-length t-SNARE heterodimer (syntaxin 1A and SNAP-25) (P32851 whole entry, chain 1 of 2): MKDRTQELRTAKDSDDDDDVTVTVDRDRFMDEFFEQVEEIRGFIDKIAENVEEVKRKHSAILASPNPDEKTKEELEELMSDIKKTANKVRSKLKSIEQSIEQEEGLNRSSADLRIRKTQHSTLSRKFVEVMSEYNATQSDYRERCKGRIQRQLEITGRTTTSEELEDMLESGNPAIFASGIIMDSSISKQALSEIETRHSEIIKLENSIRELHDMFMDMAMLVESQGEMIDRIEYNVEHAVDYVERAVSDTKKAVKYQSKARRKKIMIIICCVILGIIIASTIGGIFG
Sequence of full-length t-SNARE heterodimer (syntaxin 1A and SNAP-25) (P60879 whole entry, chain 2 of 2): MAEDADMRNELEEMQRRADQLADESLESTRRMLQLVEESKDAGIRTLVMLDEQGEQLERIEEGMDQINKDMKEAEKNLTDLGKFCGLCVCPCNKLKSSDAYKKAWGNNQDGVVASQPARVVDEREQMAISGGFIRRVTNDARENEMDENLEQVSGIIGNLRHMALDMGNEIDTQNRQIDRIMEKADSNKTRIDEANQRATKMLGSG

Take FETSAAKLKRKYWWKNLKMMIILGVICAIILIIIIVYFST (domain or fragment) [VAMP 2 in v-SNARE bilayers after cleavage by BoNT/B (remaining membrane-anchored portion)]: the “dissociation rate of the inner barrier (kβ1^o)” value was 20.1 s⁻¹ and the “dissociation rate of the outer barrier (kβ2^o)” value came to 0.46 s⁻¹.
